Results reported in US20260265354A1 (JIANGSU MABWELL HEALTH PHARMACEUTICAL R AND D, published 2026).

T1: Nectin-like-2 (UniProt Q9BY67 45-374, limits assumed)
T1 construct: Bought recombinant protein; also called CADM1; IgSF4
T1 sequence (looked up): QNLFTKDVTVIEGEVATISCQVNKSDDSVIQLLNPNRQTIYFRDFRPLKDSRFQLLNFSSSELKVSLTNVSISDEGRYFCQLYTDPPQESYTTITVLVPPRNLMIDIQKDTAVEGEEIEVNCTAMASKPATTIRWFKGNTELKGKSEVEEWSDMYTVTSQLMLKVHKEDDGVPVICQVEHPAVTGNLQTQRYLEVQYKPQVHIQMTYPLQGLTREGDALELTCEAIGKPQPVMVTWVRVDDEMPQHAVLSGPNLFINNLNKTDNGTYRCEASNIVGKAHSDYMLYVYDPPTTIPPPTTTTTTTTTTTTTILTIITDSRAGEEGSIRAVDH

T2: Nectin-like-3 (UniProt Q8N3J6 25-367, limits assumed)
T2 construct: Bought recombinant protein; also called CADM2; IgSF4D
T2 sequence (looked up): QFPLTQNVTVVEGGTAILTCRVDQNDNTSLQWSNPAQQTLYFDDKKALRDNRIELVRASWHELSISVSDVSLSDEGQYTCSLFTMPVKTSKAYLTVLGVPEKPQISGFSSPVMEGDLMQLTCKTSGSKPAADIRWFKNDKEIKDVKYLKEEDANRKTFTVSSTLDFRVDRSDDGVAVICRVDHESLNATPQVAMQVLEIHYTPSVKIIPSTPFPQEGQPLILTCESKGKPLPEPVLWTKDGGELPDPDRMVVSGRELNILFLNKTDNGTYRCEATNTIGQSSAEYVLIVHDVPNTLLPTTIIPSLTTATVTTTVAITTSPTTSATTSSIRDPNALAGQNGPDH

T3: Nectin-like-4 (UniProt Q8NFZ8 21-324, limits assumed)
T3 construct: Bought recombinant protein; also called CADM4; IgSF4C
T3 sequence (looked up): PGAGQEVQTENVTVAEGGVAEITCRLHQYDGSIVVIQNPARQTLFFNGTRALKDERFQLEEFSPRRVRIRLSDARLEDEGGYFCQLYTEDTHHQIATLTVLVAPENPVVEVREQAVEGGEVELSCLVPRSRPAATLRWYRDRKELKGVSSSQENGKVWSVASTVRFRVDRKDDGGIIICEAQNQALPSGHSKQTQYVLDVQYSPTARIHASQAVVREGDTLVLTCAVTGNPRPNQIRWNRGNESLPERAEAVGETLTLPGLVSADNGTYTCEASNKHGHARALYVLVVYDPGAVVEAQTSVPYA

T4: recombinant human Nectin-4 protein (human, UniProt Q96NY8 32-349)
T4 construct: Prepared in-house (Jiangsu Mabwell) by transient transfection of CHO cells; also called PVRL-4; PRR-4
T4 sequence: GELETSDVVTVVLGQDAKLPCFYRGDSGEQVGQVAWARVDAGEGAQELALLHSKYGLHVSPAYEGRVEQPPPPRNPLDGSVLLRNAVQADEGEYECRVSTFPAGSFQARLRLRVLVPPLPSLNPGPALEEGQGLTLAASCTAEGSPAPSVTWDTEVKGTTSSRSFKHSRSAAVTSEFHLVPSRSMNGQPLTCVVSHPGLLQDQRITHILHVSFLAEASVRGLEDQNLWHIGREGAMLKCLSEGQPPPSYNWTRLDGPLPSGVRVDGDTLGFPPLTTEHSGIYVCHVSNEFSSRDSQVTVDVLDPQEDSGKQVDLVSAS

T5: Nectin-2 (UniProt Q92692 32-360, limits assumed)
T5 construct: Bought recombinant protein; also called CD112; PVRL-2
T5 sequence (looked up): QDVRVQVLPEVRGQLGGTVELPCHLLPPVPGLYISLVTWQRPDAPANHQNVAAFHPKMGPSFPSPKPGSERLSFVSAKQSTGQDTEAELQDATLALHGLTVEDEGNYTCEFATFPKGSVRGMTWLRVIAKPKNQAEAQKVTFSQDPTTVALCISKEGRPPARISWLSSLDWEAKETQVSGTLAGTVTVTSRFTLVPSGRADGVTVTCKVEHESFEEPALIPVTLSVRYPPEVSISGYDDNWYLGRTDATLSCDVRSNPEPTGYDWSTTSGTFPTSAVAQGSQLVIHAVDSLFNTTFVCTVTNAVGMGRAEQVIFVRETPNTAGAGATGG

T6: Nectin-like-1 (UniProt Q8N126 25-330, limits assumed)
T6 construct: Bought recombinant protein; also called CADM3; IgSF4B
T6 sequence (looked up): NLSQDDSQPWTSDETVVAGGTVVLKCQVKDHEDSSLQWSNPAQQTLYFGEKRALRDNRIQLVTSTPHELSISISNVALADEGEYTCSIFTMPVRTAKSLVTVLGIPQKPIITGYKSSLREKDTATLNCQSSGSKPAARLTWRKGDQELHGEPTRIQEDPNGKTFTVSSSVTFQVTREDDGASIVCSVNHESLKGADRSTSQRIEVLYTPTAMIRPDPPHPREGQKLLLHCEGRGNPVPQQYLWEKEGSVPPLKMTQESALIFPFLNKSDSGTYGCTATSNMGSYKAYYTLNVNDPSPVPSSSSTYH


Columns and labels:
Nectin-like-2 = target: T1, Nectin-like-2; assay: ELISA, coated antigen
Nectin-like-3 = target: T2, Nectin-like-3; assay: ELISA, coated antigen, antibody at 100 ng/ml
Description: (§1) Coating: Nectin-1, Nectin-2, Nectin-3, Nectin-4, Nectin-like-1, Nectin-like-2, Nectin-like-3, Nectin-like-4, and Nectin-like-5 were diluted to 5 μg/ml in coating buffer (carbonate buffer, pH 9.6) respectively. A 96-well plate was coat with 100 μl per well and incubated overnight at 2-8° C.;
(§2) Sample loading: The plate was taken out, patted dry, and washed twice with 200 μl/well of PBST, then patted dry. The Nectin-4 antibodies prepared in Example 1 (antibody MM11, antibody R012, and antibody R036) were diluted with 1% BSA/PBST to concentrations of 10 μg/ml, 1 μg/ml, 100 ng/ml, and 10 ng/ml, respectively. 1% BSA/PBST solution for dilution was set as a blank control. 100 μl per well was added to the 96-well plate, and incubated at room temperature for 2 hours;
(§3) Reaction termination and plate reading: 100 μl/well of 1 mol/L H3PO4 was added to terminate the reaction and the plated was read. The absorbances of wells in the plate at 450 nm with 650 nm as reference wavelength were read and recorded as OD_{450 nm-650 nm}.

Nectin-like-4 = target: T3, Nectin-like-4; assay: ELISA, coated antigen, antibody at 100 ng/ml
Description: as §1, §2, §3

[1] = target: T4, recombinant human Nectin-4 protein; assay: ELISA, coated antigen, antibody at 100 ng/ml
Description: as §1, §2, §3

Nectin-2 = target: T5, Nectin-2; assay: ELISA, coated antigen, antibody at 100 ng/ml
Description: as §1, §2, §3

Nectin-like-1 = target: T6, Nectin-like-1; assay: ELISA, coated antigen, antibody at 100 ng/ml
Description: as §1, §2, §3

Binder	binding result (Nectin-like-2)	OD detection value (Nectin-like-3)	OD detection value (Nectin-like-4)	OD detection value [1]	OD detection value (Nectin-2)	OD detection value (Nectin-like-1)
Antibody MM11 (antibody, mouse IgG1, kappa, V domains shown, Mouse monoclonal antibody from hybridoma; also called Nectin-4 mouse monoclonal antibody MM11; mouse antibody MM11) VH: DVQLQESGPGLVKPSQSLSLTCSVTGYSITSNFYWNWIRQFPGNRLEWMGYISYDGSNNYNPSLKNRISISRDTSKNQFFLKLNSVTTEDTATYYCVRADYWGQGTLVTVSA VL: DTVMTQTPLSLPVSLGDQASISCRSSQSLESSDGHAYLNWYLQKPGQSPQLLIYRVSNRFSGVLHRFSGSGSGTDFTLKISRVEAEDLGVYFCLQFTHVPFTFGSGTKLEIKR	no binding (tested: 10000 ng/ml)	0.031 OD450 nm-650 nm	0.007 OD450 nm-650 nm	1.64 OD450 nm-650 nm	0.007 OD450 nm-650 nm	0.01 OD450 nm-650 nm
Antibody R012 (antibody, V domains shown, Rabbit monoclonal antibody from phage display; also called Nectin-4 rabbit monoclonal antibody R012; rabbit antibody R012) VH: SKSVEESGGRLVTPGTPLTLTCTVSGFSLSTYAMSWVRQAPGKGLEYIGIISGRGTTYYASWLKGRFTISKTSTTVDLKITSPTTEDTATYFCARDAGISDVYTGYFNLWGQGTLVTVSS VL: QPVLAQLPSASAALGASAKLTCTLSSAHRTYTIAWYQQQQGEAPRYLMMLKSDGSYTKGTGVPDRFSGSSSGADRYLIISSVQAADEADYYCGADDSGGYVFGGGTQLTVTG	no binding (tested: 10000 ng/ml)	0.008 OD450 nm-650 nm	0.008 OD450 nm-650 nm	1.44 OD450 nm-650 nm	0.007 OD450 nm-650 nm	0.008 OD450 nm-650 nm
Antibody R036 (antibody, V domains shown, Rabbit monoclonal antibody from phage display; also called Nectin-4 rabbit monoclonal antibody R036; rabbit antibody R036) VH: SQSVEESGGRLVTPGTPLTLTCTVSGFSLSSYAMSWVRQAPGKGLEYIGIIGGRGTTYYAIWAKGRFTISKTSTTVDLKITSPTTEDTATYFCARDAGTTYVGTTYVATGYFNLWGQGTLVTVSS VL: QPVLTQPPSASAALGASAKLTCTLSSAHKTYTIAWYQQQQGEAPRYLMILKSDGSYTRGTGVPDRFSGSSSGADRYLIISSVQADDEADYYCGADDSGGYVFGGGTQLTVTG	no binding (tested: 10000 ng/ml)	0.007 OD450 nm-650 nm	0.007 OD450 nm-650 nm	1.48 OD450 nm-650 nm	0.007 OD450 nm-650 nm	0.007 OD450 nm-650 nm
